Positions count from the first letter of the chain named. Numbers in names are those of the source. Entries after “also recorded” stand apart in the source; their conditions may differ.

For experiment [1], the system named is polarized colon cancer T84 cells. Briefly: Transepithelial electrical resistance (TEER) on polarized T84 cells. The class given is cell-based. To be noted: for Effect on the TEER: added for 1 hour to the apical side of transwell cultures. Here is the method:
(§1) FIG. 5A-5B. Correlation of reduced DSG2 binding with the ability to open epithelial junctions. FIG. 5A) Transepithelial electrical resistance (TEER) measured on polarized colon cancer T84 cells. Cells were cultured in transwell chambers until the TEER was constant, i.e. tight junctions had formed. A total of 5 μg of dimeric Ad3 fiber knobs in PBS was then added for 1 hour to the apical chamber. TEER was measured at the indicated time points. N=6. For time points 1.5 and 4 hours the difference between JO-1 vs D261N and N186D was significant (p<0.01). The arrows indicate the addition and removal of Ad3 fiber knobs. FIG. 5B) Enhancement of irinotecan therapy. A total of 4×10^6 A549 cells were injected subcutaneously into CB17-SCID/beige mice. Once the tumor reached a volume of ˜100 mm^3 (day 15 after implantation), the mice were injected intravenously with 2 mg/kg JO-1, E299V, N186D, or PBS, followed by an intravenous injection of irinotecan (37.5 mg/kg) one hour later. The treatment was repeated on day 25. N=5. […] The difference between “irinotecan” vs “JO-1+irinotecan” was significant (p<0.01) from day 20 on.
FIG. 9A1-9C. Analysis of dimeric Ad3 fiber knob mutants with increased affinity to DSG2. FIG. 9A1-9A2) Competition of Ad3-GFP virus infection on HeLa cells with dimeric affinity-enhanced mutant Y250F and JO-1 (dimeric wt Ad3 fiber knob). The experimental setting is as described for FIG. 3C. FIG. 9A1) percentage of GFP positive cells. FIG. 9A2) mean fluorescence intensity. N=3. The standard deviation was less than 10%. FIG. 9B1-9B2) Competition of Ad3-GFP virus infection on HeLa cells by Ad3 knob mutants with enhanced DSG2 binding but without dimerization domain. 1.5×10^5 HeLa cells were seeded into 24 well plates. Cells were incubated with the Ad3 knob mutants at the increasing concentrations for one hour at room temperature. 100 pfu/cell of Ad3GFP virus were then added and GFP expression was analyzed 18 hours later. FIG. 9B1) % of GFP+cells; FIG. 9B2) MFI. FIG. 9C) TEER on colon cancer T84 cells. The experimental setting was the same as for FIG. 5A. The TEER at 4 hours is shown. N=3.
Permeability assay. A total of 5×10^5 T84 cells were seeded in 12 mm transwell inserts (PET membrane, with 0.4 μm pore size (Corning, NY) and cultured for >14 days until transepithelial electrical resistance (TEER) was stable. Culture medium was changed every 2-3 days. The cells were exposed to DSG2 ligands (20 μg/ml) in adhesion medium (DMEM, 1% FBS, 2 mM MgCl2, 20 mM HEPES) for 15 min at room temperature and TEER was measured and calculated as described elsewhere (39).

The subject of a further experiment is A549 xenograft tumors. Briefly: Enhancement of irinotecan therapy in A549 xenograft tumors. The experiment is classed as in vivo, CB17-SCID/beige mice. To be noted: 2 mg/kg i.v. one hour before irinotecan 37.5 mg/kg i.v.; tumor volume. As to the method: as §1
FIG. 10A-10C. Combination of affinity-enhanced JO-1 versions with chemotherapy. FIG. 10A) Enhancement of irinotecan (I) therapy. The experimental setting was the same as in FIG. 5B. […] N=5. […] Mammary fat pad tumors were established from primary ovarian cancer ovc316 cells. Treatment was started when tumors reached a volume of 100 mm^3. Mice were injected intravenously with 2 mg/kg JO-1 or with 0.5 mg/kg JO-4, followed by an intravenous injection of PEGylated liposomal doxorubicin (PLD) (1 mg/kg) one hour later. Treatment was repeated weekly. […] A total of 4×10^6 TNBC MDA-MB-231 cells were injected into the mammary fat pad of CB17 SCID-beige mice. JO-4 (2 mg/kg) was intravenously injected 1 hour before the application of cetuximab (C) (10 mg/kg, i.p.) and nab-paclitaxel (nab-P) (5 mg/kg, i.v.). Treatment was given weekly. N=10 P<0.01 at day 25 for nab-P+C vs JO-4+nab-P+C.
A549, MDA-MB-231, and ovc316 xenograft tumors were established by injection of the corresponding tumor cells into the mammary fat pad (1:1 with Matrigel) of CB17 mice. TC1-DSG2 tumors were established by subcutaneous injection of TC1-DSG2 cells into DSG2 transgenic mice. JO-0, JO-1, JO-2, or JO-4 were intravenously injected one hour before the application of chemotherapeutic drugs: Irinotecan/Camptosar™ (Pfizer Inc., Groton, CT), PEGylated liposomal doxorubicin/Lipodox™ (Sun Pharmaceuticals IN, India), cetuximab/Erbitux™ (ImClone, Somerville, NJ), nanoparticle albumin conjugated paclitaxel/Abraxane” (Abraxis Biosciences, Summit, NJ). Tumor volumes were measured three times a week. Each treatment group consisted of a minimum of 5 mice.

Another experiment relates to TC1-hDSG2 tumors. Nature of the experiment: PLD therapy with repeated injection in immunocompetent mice with TC1-hDSG2 tumors. The class given is in vivo, hDSG2 transgenic mice. The conditions noted are these: 2 mg/kg i.v. one hour before PLD 1.5 mg/kg; 3rd and 4th cycle, serum antibodies detectable. As to the method: FIG. 11A-11C. Pharmacokinetics, toxicity, and immunogenicity of JO-4. FIG. 11A) Serum clearance of JO-1 and JO-4. hDSG2 transgenic mice with subcutaneous TC1-hDSG2 tumors (˜600 mm^3) were intravenously injected with JO-1 or JO-4 (2 mg/kg) and serum samples were analyzed for by ELISA. N=3. Note that the y-axis has a log scale. FIG. 11B1) Lymphocyte and FIG. 11B2) platelet counts in hDSG2/TC1-hDSG2 transgenic mice after JO-1 or JO-4 injection. N=3. FIG. 11C) Therapy studies in immunocompetent hDSG2 transgenic mice with TC1-hDSG2 tumors. When tumors reached a volume of ˜80 mm^3, JO-1 or JO-4 (2 mg/kg) or PBS was injected intravenously followed one hour later by PLD/Doxil (i.v. 1.5 mg/kg). Treatment was repeated as indicated by arrows. Tumors were then allowed to re-grow for about two weeks. From day 15 on serum anti-JO-1/J)—4 antibodies were detectable by ELISA. Two more treatment cycles were performed at day 28 and day 35. […] The difference between JO-1/PLD vs JO-4/PLD is significant from day 31 on. N=10.
A549, MDA-MB-231, and ovc316 xenograft tumors were established by injection of the corresponding tumor cells into the mammary fat pad (1:1 with Matrigel) of CB17 mice. […] Tumor volumes were measured three times a week. […]
JO-1 and JO-4 are virus-derived proteins and immunogenic. In immunocompetent mice, serum IgG antibodies against these proteins can be detected by ELISA two weeks after injection (5). […]

B1: D261N (protein)
chain: MKVSALKEKVSALKEKVSALKEKVSALKEKVSALKEGSGGGSGGGSGGGSNSIALKNNTLWTGPKPEANCIIEYGKQNPDSKLTLILVKNGGIVNGYVTLMGASDYVNTLFKNKNVSINVELYFDATGHILPDSSSLKTDLELKYKQTADFSARGFMPSTTAYPFVLPNAGTHNENYIFGQCYYKASNGALFPLEVTVMLNKRLPDSRTSYVMTFLWSLNAGLAPETTQATLITSPFTFSYIREDD
For the molecule B1, the “Effect on the TEER” value in experiment [1] is “no effect”.

B2: JO-4 (protein)
chain: B1 chain with Y177F, N188D
Consider B2, for which the “TEER compared to JO-1” value in experiment [1] (dimeric affinity-enhanced mutants, TEER at 4 hours) was “significantly higher”. Besides, the “Enhancement of irinotecan therapy” value in the experiment with A549 xenograft tumors is on record as “significantly more than JO-1; also recorded: significantly more efficient than JO-2”. Moreover, the “Enhancing effect on PLD therapy after repeated treatment cycles” value with TC1-hDSG2 tumors is “significantly stronger; also recorded: continued to be effective”.

B3: JO-1: dimeric protein that contains the wild-type Ad3 fiber knob and a self-dimerization domain (SEQ ID NO:27) (protein, listed as Homo sapiens)
chain: B1 chain with N188D
modifications: dimer
B3: in experiment [1], the “Effect on the TEER” value is given as “rapid decrease in the TEER”. The “Enhancement of irinotecan therapy” value with A549 xenograft tumors was “enhanced irinotecan therapy; also recorded: significant”. Moreover, the “Enhancing effect on PLD therapy after repeated treatment cycles” value with TC1-hDSG2 tumors is on record as “enhancing effect; also recorded: continued to be effective”.
